Experimental data taken from patent US20050221443A1 (published 2005).

Target: T1, RANK-L (UniProt O14788 140-317, limits assumed)
T1 sequence (looked up): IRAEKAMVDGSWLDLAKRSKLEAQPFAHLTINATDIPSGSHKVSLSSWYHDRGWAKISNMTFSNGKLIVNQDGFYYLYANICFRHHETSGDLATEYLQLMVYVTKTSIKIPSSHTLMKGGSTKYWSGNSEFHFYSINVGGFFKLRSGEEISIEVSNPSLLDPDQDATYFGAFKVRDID
Experiment: polarization anisotropy at steady state, 1 ug/mL Alexa568 TNF with increasing concentrations of RANK-L, 1 hour at 37 C
Protocol: This assay necessitated a fluorescently labeled TNF trimer that at limiting concentrations could be used as a tracer to monitor exchange. We generated a TNF variant (R31C/C69V/C101A) and specifically labeled it with Alexa568 maleimide at the R31 position. Polarization anisotropy measures heterotrimer formation at steady-state. We mixed 1 ug/mL Alexa568 TNF either alone (open circles) or with increasing concentrations of RANK-L (open squares), PEG20k-A145R/Y87H TNF, PEG5k-A145R/Y87H, or A145R/Y87H in PBS/0.02% igepal for 1 hour at 37 C. These reactions were placed into the spectroscopic instrument-and the steady-state anisotropy was measured. […] (FIG. 8B) Addition of surfactant excipients catalyzes the exchange between TNF homotrimers. We mixed together 1 ug/mL Alexa568 TNF alone (open circles) or with 100 ug/mL PEG-5k A145R/I97T TNF (closed circles) in a 96-well assay format and began anisotropy measurements. After ˜2000 seconds the instrument was paused and 0.5% polysorbate-20 or polysorbate-80 were added and the measurement was resumed.

B1: Alexa568 TNF (TNF variant R31C/C69V/C101A labeled with Alexa568 maleimide) (ligand, human, UniProt P01375 77-233, looked up)
chain: VRSSSRTPSDKPVAHVVANPQAEGQLQWLNCRANALLANGVELRDNQLVVPSEGLYLIYSQVLFKGQGVPSTHVLLTHTISRIAVSYQTKVNLLSAIKSPAQRETPEGAEAKPWYEPIYLGGVFQLEKGDRLSAEINRPDYLDFAESGQVYFGIIAL
modifications: Alexa568 maleimide at the R31 position (Cys of R31C)
notes: extracellular domain; Fluorescent tracer homotrimer
- binding result: no binding
